Data reported in patent publication US20240140995A1.

Tests used:
[1] = target: T1, GthCol (Geobacillus thermoglucosidasius C-terminal Colicin DNase domain, C36A, H78A, engineered) (Geobacillus thermoglucosidasius); assay: SPR Biacore T200, 37 C, single cycle kinetics; details: remark: other sources report otherwise
[2] = target: T1, GthCol (Geobacillus thermoglucosidasius …); assay: SPR Biacore T200, 37 C, single cycle kinetics; […]; details: remark: other sources report otherwise

B1: E. coli IM-7, singly biotinylated, Q03708 1-87 (protein)
chain: MELKNSISDYTEAEFVQLLKEIEKENVAATDDVLDVLLEHFVKITEHPDGTDLIYYPSDNRDDSPEGIVKEIKEWRAANGKPGFKQG
B1 was tested, and the complex half-life t/2-diss [1] was 2.1 h, the Kd [2] was 0.074 nM and the MR (Molar Ratio, binding stoichiometry) [2] was 1.1. The koff [2] was 9.2e-05 s⁻¹ and the kon [2] was 1.2e+06 M⁻¹ s⁻¹.
